Assay results: article PMC2597643 (Nature, 2008)
Values joined by “and” are separate entries in the source; they are usually repeats but may differ in a detail not shown here. Identical values can stand only once.

Legend:
Orai (in HEK-293 cells) = Orai (in HEK-293 cells) (UniProt Q9U6B8); test: native gel or EMSA
cross-linking = target: the molecule itself; test: cross-linking
[1] = target: the molecule itself; test: single-molecule photobleaching

Orai (in HEK-293 cells) (from UniProt Q9U6B8 1-351) (natural protein)
stoichiometry N (Orai (in HEK-293 cells)): 2

B1: HA-tagged Orai (natural protein)
chain: MSVWTTANNSGLETPTKSPITSSVPRAARSSAVITTGNHQQHHFQHVVAAAVAAATSVATGHQFQQQFPLHAHPHPQHHSNSPTGSGSNSNNSAGFQRTSISNSLLQFPPPPPPSSQNQAKPRGHHRTASSSMSQSGEDLHSPTYLSWRKLQLSRAKLKASSKTSALLSGFAMVAMVEVQLDHDTNVPPGMLIAFAICTTLLVAVHMLALMISTCILPNIETVCNLHSISLVHESPHERLHWYIETAWAFSTLLGLILFLLEIAILCWVKFYDLSPPAAWSACVVLIPVMIIFMAFAIHFYRSLVSHKYEVTVSGIRELEMLKEQMEQDHLEHHNNIRNNGMNYGASGDIV
stoichiometry N (cross-linking): 2

B2: GFP-Flag-Orai (in Xenopus oocytes) (natural protein)
chain: B1 chain
stoichiometry N [1]: 2 and 4
